Measured values from article PMC2928020 (The Journal of Cell Biology, 2010).
Where no end group is shown, it is not given here. The star is where a group is joined. FITC = O=C1OC2(c3ccc(O)cc3Oc3cc(O)ccc32)c2ccc(NC(=S)*)cc21

Molecular target: SNX27 PDZ domain, wild type (residues 39-131 of rat SNX27) (rat, UniProt Q8K4V4 39-131)
Experiment: fluorescence polarisation

Binder: {FITC}-TNDSLL [FITC-labeled peptide corresponding to the C-terminal six residues of the β2AR (TNDSLL)]
- Kd: 17 ± 1.2 µM
